Measurements from US20250084158A1 (ABL BIO, published 2025).
Values belong to the binder of their own block, whether it stands above or below them.

How the values were obtained:
human CLL-1 on cells [1] = molecular target: T1, human CLL-1 on cells (human, UniProt Q5QGZ9 1-265); assay: FACS, U937 cells (2nd Ab only 4.77)
T1 construct: whole, on cells; Overexpressed in HEK293E cells or carried by CLL1-expressing leukemic cell lines; the cell line is named under assay or readout; also called CLEC12A; huCLL1_293E
T1 sequence (looked up): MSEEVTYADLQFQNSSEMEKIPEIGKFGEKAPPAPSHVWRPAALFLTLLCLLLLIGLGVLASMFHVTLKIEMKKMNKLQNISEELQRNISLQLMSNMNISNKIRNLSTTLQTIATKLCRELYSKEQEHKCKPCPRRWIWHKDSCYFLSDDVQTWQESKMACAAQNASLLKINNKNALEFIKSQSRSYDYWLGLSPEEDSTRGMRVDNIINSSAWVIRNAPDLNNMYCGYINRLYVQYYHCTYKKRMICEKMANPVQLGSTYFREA
Experimental: (§1) To evaluate cell binding property, the chimeric antibody candidates of Example 1.2. were analyzed in CLL1 negative cells (HEK293E and Jurkat) and various CLL1 expressing cancer cells by using FACS.
(§2) Briefly, cells were incubated with antibodies at 4° C. for 1 hr. Firstly, the cells were washed with an assay buffer (1% BSA in PBS). Then, an anti-human IgG Fc conjugated with FITC (Fluorescein isothiocyanate) (Sigma, F9512) was added to each well and incubated at 4° C. for 1 hr. After wash, the MFI (Median Fluorescence Intensity) of FITC was measured by BD FACS Cal ibur (BD Biosciences).

human CLL-1 on cells [2] = molecular target: T1, human CLL-1 on cells; assay: FACS, EOL-1 cells (2nd Ab only 2.53)
Experimental: as §1, §2

human CLL-1 on cells [3] = molecular target: T1, human CLL-1 on cells; assay: FACS, PL21 cells (2nd Ab only 2.82)
Experimental: as §1, §2

human CLL-1 on cells [4] = molecular target: T1, human CLL-1 on cells; assay: FACS, HL60 cells (2nd Ab only 5.09)
Experimental: as §1, §2

human CLL-1 on cells [5] = molecular target: T1, human CLL-1 on cells; assay: FACS, huCLL1_293E cells (2nd Ab only 5.05)
Experimental: as §1, §2

human CLL-1 on cells [6] = molecular target: T1, human CLL-1 on cells; assay: FACS, OCI-AML2 cells (2nd Ab only 3.28)
Experimental: as §1, §2

hFc-Cynomolgus CLL1 = molecular target: T2, hFc-Cynomolgus CLL1 (cynomolgus); assay: ELISA, 50 and 100 ng/well coated antigen; stronger than reference 6E7
T2 construct: Cynomolgus CLL1 with N-terminal human IgG1 Fc, made in-house
T2 sequence (chain, as listed by the source limits assumed): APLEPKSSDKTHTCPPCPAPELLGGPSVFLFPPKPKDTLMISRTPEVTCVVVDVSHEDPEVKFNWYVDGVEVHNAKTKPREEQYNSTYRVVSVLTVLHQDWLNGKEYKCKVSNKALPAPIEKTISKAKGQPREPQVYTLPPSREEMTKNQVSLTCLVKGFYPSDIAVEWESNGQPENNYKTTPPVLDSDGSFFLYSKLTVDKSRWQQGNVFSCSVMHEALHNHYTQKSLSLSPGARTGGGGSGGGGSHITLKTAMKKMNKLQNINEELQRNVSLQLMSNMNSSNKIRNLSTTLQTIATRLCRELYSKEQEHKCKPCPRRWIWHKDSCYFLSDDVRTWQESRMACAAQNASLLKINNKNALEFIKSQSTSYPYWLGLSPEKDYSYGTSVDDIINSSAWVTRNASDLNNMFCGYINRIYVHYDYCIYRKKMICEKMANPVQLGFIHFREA
Experimental: (§3) Briefly, the antigen (ligand) was coated overnight at 4VC. The antigen coated plate was blocked with 1% BSA in PBS at 4VC for 2 hr and incubated with antibodies at 4° C. for 2 hrs. To find out the EC₅₀ (nM) of each antibody, 4-fold serial dilutions were prepared from an antibody solution of a concentration of 50 nM to 0.2 pM and diluted antibodies were treated to each well, and the plate was washed with 1×PBST. Then Goat anti-Human IgG F(ab′)2 cross-adsorbed secondary antibody conjugated with HRP (horseradish peroxidase) (Thermo, 31414) was added to each well and incubated at 4° C. for 1 hr. After wash, a TMB (3,3′,5,5′-tetramethylbenzidine) substrate (Sigma, T0440) was added to each well and the OD at 450 nm was measured by an ELISA plate reader.
Continuously, antibody candidates of Example 1.2. were analyzed to compare the ligand binding activities by ELISA, using 50 ng/well and 100 ng/well of hFc-Cynomolgus CLL1 as a ligandin the same manner as described above. Genentech's anti-CLL-1 antibody 6E7 was used as a reference.

hFc-Human CLL1 = molecular target: T3, hFc-Human CLL1 (human); assay: ELISA, coated antigen
T3 construct: Human CLL1 with N-terminal human IgG1 Fc, made in-house; also called hFc-huCLL1
Experimental: Antibody candidates of Example 1.2. were analyzed to compare the ligand binding activity by ELISA, using huCLL1-His and hFc-huCLL1 as ligands.
as §3

MFI(FL1-H) (human CLL-1 on cells [1]): 45.8
MFI(FL1-H) (human CLL-1 on cells [2]): 3.73
MFI(FL1-H) (human CLL-1 on cells [3]): 38.6
MFI(FL1-H) (human CLL-1 on cells [4]): 18.5
MFI(FL1-H) (human CLL-1 on cells [5]): 115
MFI(FL1-H) (human CLL-1 on cells [6]): 19.5
binding result (hFc-Cynomolgus CLL1): binds
binding result (hFc-Human CLL1): binds
B1: ch16C6(NA) (antibody, human IgG1, kappa, N297A, V domains shown)
VH: EVQLQQSGPELVKPGASVKISCKASGYSFTGYYMHWVKQSHVKSLEWIGHVNPYNGATSFNRNFKDKASLTVDKSSSTAYMELHSLTSEDSAVYYCGRSAYGYYERHFDYWGQGTTLTVSS
VL: DIVLTQSPASLAVSLGQRATISCKASQSVDYDADSYMNWYQQKPGQPPKLLIYAASNLQSGIPARFSGSGSGTDFTLNIHPVEEEDAATYYCQQSDRDPLTFGAGTKLELKR
notes: also called chimeric antibody of 16C6

MFI(FL1-H) (human CLL-1 on cells [1]): 48.1
MFI(FL1-H) (human CLL-1 on cells [2]): 3.6
MFI(FL1-H) (human CLL-1 on cells [3]): 38.8
MFI(FL1-H) (human CLL-1 on cells [4]): 19.1
MFI(FL1-H) (human CLL-1 on cells [5]): 77.7
MFI(FL1-H) (human CLL-1 on cells [6]): 19.3
binding result (hFc-Cynomolgus CLL1): binds
binding result (hFc-Human CLL1): binds
B2: ch33C2(NA) (antibody, human IgG1, kappa, N297A, V domains shown)
VH: EVQLQQSGPELVKPGASMKISCKASGYSFTGYAMNWVKQSHGKNLEWIGLINPYNGGAMYNQKFKGKATLTVDKSTSTAYMELLSLTSEDSAVYYCARDYRYEGHLDYWGQGTTLTVSS
VL: QIVLTQSPVIMSASPGEKVTMTCSATSSVSYMHWYQQKSGTSPKRWIYDTSKLASGVPVRFSGSGSGTSYSLTISRMEAEDAATYYCQQWSSDSPTFGVGTKLELKR
notes: also called chimeric antibody of 33C2
